Molecular target: VEGFR-2
Experiment: cell-based or functional assay

VEGF-DΔN (from UniProt O43915 93-354) (ligand)
activity towards the VEGFR-2 bioassay: 10 fold
